According to patent publication US20250320281A1:

How the values were obtained:
Test in all cases: cell-based or functional assay
[1] = target: HIV-1 Env of isolate 92UG031 (HIV-1)
[2] = target: HIV-1 Env of isolate MGRM-AE-006 (subtype AE) (HIV-1)
[3] = target: HIV-1 Env of isolate MGRM-AE-004 (subtype AE) (HIV-1)
[4] = target: HIV-1 Env of isolate MG RM-D-013 (HIV-1)
[5] = target: HIV-1 envelope glycoprotein (Env) of isolate MGRM-C-025 (HIV-1)
[6] = target: HIV-1 Env of isolate MGRM-AE-003 (subtype AE) (HIV-1)
[7] = target: HIV-1 Env of isolate MGRM-AG-009 (subtype AG) (HIV-1)
[8] = target: HIV-1 envelope glycoprotein (Env) of isolate MGRM-C-008 (HIV-1)
[9] = target: HIV-1 Env of isolate MGRM-C-005 (subtype C) (HIV-1)
[10] = target: HIV-1 envelope glycoprotein (Env) of isolate MGRM-C-027 (HIV-1)
[11] = target: HIV-1 Env of isolate MGRM-A-012 (subtype A) (HIV-1)
[12] = target: HIV-1 Env of isolate QH0692.42 (subtype B) (HIV-1)
[13] = target: HIV-1 Env of isolate MG RM-D-001 (HIV-1)
[14] = target: HIV-1 Env of isolate 98CN009 (HIV-1)
[15] = target: HIV-1 Env of isolate APV-17 (HIV-1)
[16] = target: HIV-1 JRCSF Env (pseudovirus, clade B) (HIV-1) (UniProt P20871)
[17] = target: HIV-1 92RW020 Env (pseudovirus, clade A) (HIV-1)
[18] = target: HIV-1 Env of isolate MGRM-AG-005 (clade AG), on pseudovirus (HIV-1)
[19] = target: HIV-1 MGRM-AG-005 Env (pseudovirus) (HIV-1)
[20] = target: HIV-1 93IN905 Env (pseudovirus, clade C) (HIV-1)
[21] = target: HIV-1 92TH021 envelope glycoprotein (Env) on pseudovirus (HIV-1)
[22] = target: HIV-1 envelope glycoprotein (Env) of isolate 94UG103, clade A (HIV-1)
[23] = target: HIV-1 Env of pseudovirus MGRM-AG-002 (clade CRF_AG) (HIV-1)
[24] = target: HIV-1 Env of isolate MGRM-D-016 (clade D pseudovirus) (HIV-1)
[25] = target: HIV-1 envelope glycoprotein (Env) of isolate 92RW026, clade A (HIV-1)
[26] = target: HIV-1 Env of pseudovirus MGRM-AG-011 (clade CRF_AG) (HIV-1)
[27] = target: HIV-1 envelope glycoprotein (Env) of isolate MGRM-A-003, clade A (HIV-1)
[28] = target: HIV-1 Env of isolate SC422661.8 (Acute), clade B, on pseudovirus (HIV-1)
[29] = target: HIV-1 envelope glycoprotein (Env) of isolate 92RW008, clade A (HIV-1)
[30] = target: HIV-1 Env of pseudovirus MGRM-G-017 (HIV-1, clade G isolate MGRM-G-017)
[31] = target: HIV-1 Env of isolate MGRM-Chronic-B-002, clade B, on pseudovirus (HIV-1)
[32] = target: HIV-1 Env of pseudovirus MGRM-AE-002 (clade CRF01_AE) (HIV-1)
[33] = target: HIV-1 Env of isolate MGRM-Chronic-B-003 (subtype B pseudovirus) (HIV-1)
[34] = target: HIV-1 Env of isolate MGRM-Chronic-B-011 (subtype B pseudovirus) (HIV-1)
[35] = target: HIV-1 Env of isolate TRJ04551.58 (subtype B pseudovirus) (HIV-1)
[36] = target: HIV-1 Env of isolate MGRM-D-021 (pseudovirus) (HIV-1)
[37] = target: HIV-1 Env of isolate MGRM-D-029 (pseudovirus) (HIV-1)

4995_E20 (PGT-142) (antibody), sequence (VH): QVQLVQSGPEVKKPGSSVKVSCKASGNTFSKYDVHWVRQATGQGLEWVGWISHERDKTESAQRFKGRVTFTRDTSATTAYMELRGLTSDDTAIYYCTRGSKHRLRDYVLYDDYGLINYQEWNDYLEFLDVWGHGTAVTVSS
4995_E20 (PGT-142) (antibody), sequence (VL): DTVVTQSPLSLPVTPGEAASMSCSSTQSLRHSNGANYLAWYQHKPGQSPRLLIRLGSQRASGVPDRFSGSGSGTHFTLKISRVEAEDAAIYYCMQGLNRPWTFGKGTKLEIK
5345_I01 (PGT-137) (antibody), sequence (VH): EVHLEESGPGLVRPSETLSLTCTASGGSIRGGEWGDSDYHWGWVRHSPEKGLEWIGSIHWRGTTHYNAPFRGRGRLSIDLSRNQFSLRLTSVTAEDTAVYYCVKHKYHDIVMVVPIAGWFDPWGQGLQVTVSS
5345_I01 (PGT-137) (antibody), sequence (VL): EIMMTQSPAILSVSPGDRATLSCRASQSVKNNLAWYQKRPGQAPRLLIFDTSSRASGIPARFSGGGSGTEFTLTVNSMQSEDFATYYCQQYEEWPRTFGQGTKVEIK
4980_N08 (PGT-143) (antibody), sequence (VH): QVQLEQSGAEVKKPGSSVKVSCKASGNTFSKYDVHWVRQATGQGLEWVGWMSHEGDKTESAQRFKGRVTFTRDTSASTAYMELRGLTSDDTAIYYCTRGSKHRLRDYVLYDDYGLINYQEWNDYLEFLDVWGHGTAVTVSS
4980_N08 (PGT-143) (antibody), sequence (VL): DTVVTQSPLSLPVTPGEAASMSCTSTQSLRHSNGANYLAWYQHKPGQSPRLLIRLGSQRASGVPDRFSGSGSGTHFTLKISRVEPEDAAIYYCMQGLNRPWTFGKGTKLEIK

## 5345_I01 (PGT-137) (antibody)
[1]
  IC50: > 50 µg/mL
[2]
  IC50 (µg/mL), pseudovirus neutralization: > 50 µg/mL
[3]
  IC50 (µg/mL), pseudovirus neutralization: > 50 µg/mL
[4]
  IC50 (µg/mL), pseudovirus neutralization: > 50 µg/mL
[5]
  IC50 (µg/mL), pseudovirus neutralization: > 50 µg/mL
[6]
  IC50 (µg/mL), pseudovirus neutralization: > 50 µg/mL
[7]
  IC50 (µg/mL), pseudovirus neutralization: > 50 µg/mL
[8]
  IC50 (µg/mL), pseudovirus neutralization: > 50 µg/mL
[9]
  IC50 neutralization: > 50 µg/mL
[10]
  IC50 (µg/mL), pseudovirus neutralization: > 50 µg/mL
[11]
  IC50 (µg/mL), pseudovirus neutralization: > 50 µg/mL
[12]
  IC50 neutralization: > 50 µg/mL
[13]
  IC50 (µg/mL), pseudovirus neutralization: > 50 µg/mL
[14]
  IC50 (µg/mL), pseudovirus neutralization: 5.06 µg/mL
[15]
  neutralization IC50: > 50 µg/mL

## 5147_N06 (PGT-130) (antibody)
[1]
  IC50: > 50 µg/mL
[2]
  IC50 (µg/mL), pseudovirus neutralization: 0.009 µg/mL
[3]
  IC50 (µg/mL), pseudovirus neutralization: 2.43 µg/mL
[4]
  IC50 (µg/mL), pseudovirus neutralization: 0.429 µg/mL
[16]
  IC50 neutralization: 0.0089 µg/mL
[17]
  IC50 neutralization: 0.014 µg/mL
[5]
  IC50 (µg/mL), pseudovirus neutralization: > 50 µg/mL
[18]
  IC50, pseudovirus neutralization: 0.947 µg/mL
[6]
  IC50 (µg/mL), pseudovirus neutralization: 0.337 µg/mL
[7]
  IC50 (µg/mL), pseudovirus neutralization: 9.46 µg/mL
[19]
  Neutralization by PGT-130, IC50: 0.947 µg/mL
  Neutralization by PGT-130, IC80: > 10 µg/mL
  Neutralization by PGT-130, IC90: > 10 µg/mL
  Neutralization by PGT-130, IC95: > 10 µg/mL
  neutralization IC50 (pseudovirus): 0.947 µg/mL
[8]
  IC50 (µg/mL), pseudovirus neutralization: 7.28 µg/mL
[9]
  IC50 neutralization: 0.935 µg/mL
[20]
  IC50 neutralization: 0.0182 µg/mL
[10]
  IC50 (µg/mL), pseudovirus neutralization: 0.008 µg/mL
[11]
  IC50 (µg/mL), pseudovirus neutralization: > 50 µg/mL
[12]
  IC50 neutralization: > 50 µg/mL
[13]
  IC50 (µg/mL), pseudovirus neutralization: > 50 µg/mL
[14]
  IC50 (µg/mL), pseudovirus neutralization: 0.136 µg/mL
[15]
  neutralization IC50: 10.7 µg/mL

## 1496_C09 (PG9) (TCN-109) (antibody)
[21]
  IC50, pseudovirus neutralization: 0.111 µg/mL
[22]
  IC50 (µg/ml), pseudovirus neutralization: 0.24 µg/mL
[23]
  IC50: 0.04 µg/mL
[24]
  IC50 (µg/ml), pseudovirus neutralization: 0.1 µg/mL
[25]
  IC50 (µg/ml), pseudovirus neutralization: 0.27 µg/mL
[26]
  IC50: 0.01 µg/mL
[27]
  IC50 (µg/ml), pseudovirus neutralization: 0.65 µg/mL
[28]
  IC50 (µg/ml), pseudovirus neutralization: 0.79 µg/mL
[17]
  IC50 neutralization: 0.161 µg/mL
[29]
  IC50 (µg/ml), pseudovirus neutralization: 0.01 µg/mL
[30]
  IC50 (µg/ml), pseudovirus neutralization: 0.03 µg/mL
[31]
  IC50 (µg/ml), pseudovirus neutralization: 1.41 µg/mL
[32]
  IC50: 0.04 µg/mL
[20]
  IC50 neutralization: 0.048 µg/mL
[14]
  IC50: 0.371 µg/mL

## VRC01 (antibody)
[2]
  IC50 (µg/mL), pseudovirus neutralization: 4.65 µg/mL
[3]
  IC50 (µg/mL), pseudovirus neutralization: 0.187 µg/mL
[4]
  IC50: 0.087 µg/mL
[6]
  IC50 (µg/mL), pseudovirus neutralization: 0.685 µg/mL

## 4877_D15 (PGT-122) (antibody)
[33]
  IC50 (µg/mL), pseudovirus neutralization: 0.008 µg/mL
[34]
  IC50 (µg/mL), pseudovirus neutralization: > 50 µg/mL
[16]
  IC50 neutralization: 0.0727 µg/mL
[17]
  IC50 neutralization: 0.0072 µg/mL
[18]
  IC50, pseudovirus neutralization: > 10 µg/mL
[35]
  IC50 (µg/mL), pseudovirus neutralization: > 50 µg/mL
[19]
  neutralization IC50 (pseudovirus): > 10 µg/mL
[20]
  IC50 neutralization: 0.0138 µg/mL
[36]
  IC50, pseudovirus neutralization: 11.7 µg/mL
[37]
  IC50, pseudovirus neutralization: > 50 µg/mL

## 4995_E20 (PGT-142) (antibody)
[2]
  IC50 (µg/mL), pseudovirus neutralization: > 50 µg/mL
[3]
  IC50 (µg/mL), pseudovirus neutralization: 0.001 µg/mL
[6]
  IC50 (µg/mL), pseudovirus neutralization: > 50 µg/mL
[19]
  IC50 (neutralizing activity, pseudovirus): 0.22 µg/mL

## 4980_N08 (PGT-143) (antibody)
[2]
  IC50 (µg/mL), pseudovirus neutralization: > 50 µg/mL
[3]
  IC50 (µg/mL), pseudovirus neutralization: 0.002 µg/mL
[6]
  IC50 (µg/mL), pseudovirus neutralization: > 50 µg/mL
[19]
  IC50 (neutralizing activity, pseudovirus): 0.244 µg/mL

## PGV04 (antibody)
[14]
  IC50: 0.0125 µg/mL
